Laboratory results as given in patent publication US5726018.

Key:
[1] = target: pp32, dephosphorylated (murine) (UniProt O35381)
[2] = target: pp32 (32 kDa murine nuclear phosphoprotein from A20 cells) (murine) (UniProt O35381)
[3] = target: pp35, dephosphorylated (murine)
[4] = target: pp35 (35 kDa murine nuclear phosphoprotein purified from A20 cells) (murine)

| 32P incorporation (stoichiometry of phosphorylation) [1] [mol/mol] | 32P incorporation (stoichiometry of phosphorylation) [2] [mol/mol] | 32P incorporation (stoichiometry of phosphorylation) [3] [mol/mol] | 32P incorporation (stoichiometry of phosphorylation) [4] [mol/mol] | Substance |
| --- | --- | --- | --- | --- |
| < 0.01 | – | – | – | A 431 cell epidermal growth factor receptor kinase (from UniProt P00533) (enzyme) |
| 0.08 | < 0.01 | 0.76 | 0.05 | casein kinase II from bovine thymus (enzyme) |
| < 0.01 | < 0.01 | < 0.01 | < 0.01 | protein kinase C from rat brain (80 kDa isoenzyme) |
